Substrate in the data set: CN(C)c1ccc(/C=C/c2cc[n+](C)cc2)cc1
Kind of data set: saturation of fluorescent uptake in hOCT2-HEK293 cells (affinity, control condition). The data set is classed as cell-based, Homo sapiens.

B1: human organic cation transporter 2 (hOCT2) (Homo sapiens) (protein)
chain: MPTTVDDVLEHGGEFHFFQKQMFFLLALLSATFAPIYVGIVFLGFTPDHRCRSPGVAELSLRCGWSPAEELNYTVPGPGPAGEASPRQCRRYEVDWNQSTFDCVDPLASLDTNRSRLPLGPCRDGWVYETPGSSIVTEFNLVCANSWMLDLFQSSVNVGFFIGSMSIGYIADRFGRKLCLLTTVLINAAAGVLMAISPTYTWMLIFRLIQGLVSKAGWLIGYILITEFVGRRYRRTVGIFYQVAYTVGLLVLAGVAYALPHWRWLQFTVSLPNFFFLLYYWCIPESPRWLISQNKNAEAMRIIKHIAKKNGKSLPASLQRLRLEEETGKKLNPSFLDLVRTPQIRKHTMILMYNWFTSSVLYQGLIMHMGLAGDNIYLDFFYSALVEFPAAFMIILTIDRIGRRYPWAASNMVAGAACLASVFIPGDLQWLKIIISCLGRMGITMAYEIVCLVNAELYPTFIRNLGVHICSSMCDIGGIITPFLVYRLTNIWLELPLMVFGVLGLVAGGLVLLLPETKGKALPETIEEAENMQRPRKNKEKMIYLQVQKLDIPLN
notes: hOCT2 stably expressed in HEK293 cells
The term Km denotes the concentration of substrate that gives half-maximal velocity. With B1, the Km turned out to be 20.5 µM.

Source of the values: article PMC11169033.
